From the nanobody polyreactivity screen of Harvey et al. (2022)

Experiment: yeast display, Sf9 membrane polyspecificity reagent, FACS + sequencing; frameworks hold sequencing errors
Method in brief: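 In a synthetic yeast display library (Saccharomyces cerevisiae BJ5465), nanobody expression was induced with galactose for 36–48 hours. FACS gates were set low and high (top ~1%) using anti-HA fluorescence for expression and streptavidin fluorescence for binding of the Sf9 membrane reagent. Each polyreactivity label is drawn from the gate of origin.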

Sequence | polyreactivity (PSR sort gate)
QVQLVESGGGLFQAGGSLRLSCAASGLIFGYYDMGWYRQAPGKERELVASISRNGGCTYYADSVKGRFTISRDNAKNTVYLQMNRLKTEDTAVYYCARTGPWARYSHGLYKSDYWGQGTQVTVAS | high polyreactivity
QVQLVESGGGLFQAGGSLRLSCAASGNIFAYNAMGWYRQAPGKERELVASIRYSGGSTYYADSVKGRFTISRDNAKNTVYLQINSLKPEDTAVYYCAKRGYSSYRTYNYWGQGTQVTVSS | high polyreactivity
QVQLVESGGGLFQAGGSLRLSCAASGRIFGLYAMGWYRQAPGKERELVAAISRGGGSTYYADSVKGRFTISRDNAKNTVYLQMNSLKAEDTAFDFCATGLGYFCRLDYWGQGTQLTVSS | low polyreactivity
QVQLVESGGGLFQAGGSLRLSCAASGRIFGYNAMAGYRQAPGKERELVAVITYSGGSTYYADSVKGRFTISRDNAKNTVYLQMKSLKPEDTAVYYCIARPIDRYSGSGKQWPDYNYWGQGTQFTVSS | low polyreactivity
QVQLVESGGGLFQAGGSLRLSCAASGRIFVFYAMGWYRQAPGKEMELVAAISKSVGPTYYADSVKGRFTISRDYAKNTVYLQMNSLKPEDTAVYYCNKRSASDLWPQYGYWGQGTQVTVSS | low polyreactivity
QVQLVESGGGLFQAGGSLRLSCAASGRIFYYNAMGWYRQAPGKEREFVAAITYRGGSTYYADSVKGRFTISRDNAKITVYLQMNSLKPEDTAVYYCAARSAWQVAPRGRTVAFDYWGQGTQVTVSS | high polyreactivity
QVQLVESGGGLFQAGGSLRLSCAASGRTFDVYDMGWYRQAPGKERELVAAITWSGGSTYYADSVKGRFTISRDNAKNTVYLQMNSLKPEDTAVYYCAAGYYYFWTYDYWGQGTQVTVSS | low polyreactivity
QVQLVESGGGLFQAGGSLRLSCAASGRTFWAYAMGWYRQAPGKERELVAAITTSRGSTNYADSVKGRFTISRDNAKNTVYLQMNSLKPEDTAVYDCNADPTYHVVIGVGYWGQGTQVTVCS | low polyreactivity
QVQLVESGGGLFQAGGSLRLSCAASGSIFFENAMGWYRQAPGKEREFVAASTWSAGGRTDYADSVKGRFTISRDNAKTTVYLQMNSLKPEDTAVYYCARYPTNILYIPVRGYTDMDYWGQGTQVTVSW | low polyreactivity
QVQLVESGGGLFQAGGSLRLSCAASGSIFGKYTMGWYRQAPGKERELVAGITYRAGSTYYADSVKGRFTISRDNAKNTVYLQMNSLKPEDTAVYYCAARFYFRWYYYGSYANYWGQGTQVTVSS | high polyreactivity
QVQLVESGGGLFQAGGSLRLSCAASGSIFSKYAMAWYRQAPGKERELVAAITLNGGSTYYADSVKGRFTISRDNAKNTVYLQMNSLNPEDTAVYYCAKSDRPWWGYYYQFDYWGQGTQVTVSS | low polyreactivity
QVQLVESGGGLFQAGGSLRLSCAASGSIFWSYDMGWYRQAPGKERELVATITSGDSTYYADSVKGRFTISRDNAKNTVYLQMNSLKPEDTAVYYCAAGTYYRRTYWHREYDYWGQGTQVTVSS | low polyreactivity
QVQLVESGGGLFQAGGSLRLSCAASGSTFGNNAMGWYRQAPGKERELVAAISRSGGNTYYADSVKGRFTISRDNAKNTVYLQMNSLKPEDTAVYYCAAGKLYAAGVYYLRRLYYWGQGTQVTVSS | high polyreactivity
QVQLVESGGGLFQAGGSLRLSCAASGSTFRFNAKGWYRQAPGKERQFVAAIRFTGGSTYYADSVKGRFTISRDNAKNTVYLQMNSLKPEDTAVYYCINADEYSTVEYDYWGQGTQVSVSS | low polyreactivity
QVQLVESGGGLFQAGGSLRLSCAASGSTFVYNDMGWYRKATGKERELVAYISTSGGSTYYADSVKGRFTISRDNAKNTVYLQMNSLKPEDTAVYYCNAKRSGPWFLHVPVYYWGQGTQVTVSS | low polyreactivity
QVQLVESGGGLFQAGGSLRLSCAASGSTFYNYAMGWYRQAPGIERELVAAISSGGSTNYADSVKGRFTISRDNAKYTVFLQMNSLKPEDSAVYYCARRHRVYASRNGHDYWGQGTQVTVSS | low polyreactivity
QVQLVESGGGLFQAGGSLRLSCAASGSTFYSYAMGWYRKAPGKERELVAAISRNGGYTYYADSVKGRFTISRDNAKNTVYLQMNSLKPEDTAVYYCAALRYVHGYDYWGQGTQVTGSS | high polyreactivity
